For data set [1], the target named is T1, SACE_5754 (TetR family regulator) (Saccharopolyspora erythraea A226?) (UniProt A4FLL4).
T1 sequence: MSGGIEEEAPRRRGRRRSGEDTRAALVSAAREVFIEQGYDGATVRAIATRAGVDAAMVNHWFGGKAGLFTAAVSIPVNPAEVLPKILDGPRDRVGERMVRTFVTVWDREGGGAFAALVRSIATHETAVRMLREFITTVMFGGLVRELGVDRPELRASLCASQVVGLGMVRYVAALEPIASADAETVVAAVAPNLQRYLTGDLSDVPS
The data set is described as follows: EMSA. The settings on record: EMSA: 10 mM Tris pH 7.5, 5 mM MgCl2, 60 mM KCl, 10 mM DTT, 50 mM EDTA (so in the source), 10% glycerol, 30 C 10 min, 20 uL; 6% native PAGE, 1x TAE. Footprinting: ….

Data set [2] addresses T1, SACE_5754 (TetR family regulator) (Saccharopolyspora erythraea A226?). The data set is described as follows: DNase I footprinting. The settings on record: EMSA: 10 mM Tris pH 7.5, 5 mM MgCl2, 60 mM KCl, 10 mM DTT, 50 mM EDTA (so in the source), 10% glycerol, 30 C 10 min, 20 uL; 6% native PAGE, 1x TAE. Footprinting: …. (In general: Mobility shift assays separate free from complexed probe on a gel.)

As for “CATCGTGCCCAGCCAGTCGAGGAGTGCGGTTTCGTCGGCCATGCCGGGAACTTCGTCGATGGTGGTCAACGTTCTCCTCGCGCAGCAGGTCGTTTCCACGTCGGCGAACACGCGTCGCGATCTTGAGCTTAGTCGCGCGCCGGACGGGGTGTCGAGACTTCCGCGGTGGCGGTGGGAACAGTGAGCACGGCGTCGAACGCGTCGCGCAGCGGCGTCCGCATCCACGTGCTCTGGGAGCGGATCCGGTCC (double strand) [PeryK]”, in data set [1], the binding result is listed as “no binding”.
Turning to “CGGACCGGAGTTCGAGGTACGCGGCTTGCAGGTCCAGGAAGGGGACGTCCATGCGAGTGTCCGTTCGAGTGGCGGCTTGCGCCCGATGCTAGTCGCGGTTGATCGGCGATCGCAGGTGCACGCGGTCGATCTTGACGGCTGGCGAGAGGTGCGGGGAGGATCTGACCGACGCGGTCCACACGTGGCACCGCGATGCTGTTGTGGGCTGGACAATCGTGCCGGTTGGTAGGATCCAGCGGTGAGCAGTTCGGACGAGCAGCCGCGCCCGCGTCGCCGCAACCAGGATCGGCAGCAC (double strand) [PeryCI-ermE]”, in data set [1], the binding entry was “no binding”.
Same read-out and setting: next, “CTGTGCAGTACCTGGAGGGCGGACCCTCCGGACGCGGGTTGTTCGTCGGTGTGCGCGGATGACCCGTGCGTTCGCGTTTTCCGTTCCTGGCACAGGTGATCCGCTCCACGGGCCCTTTCCCCGCCGTGACCGGACCCTTACAGTGAGTGCGGGTCTTGATCGACAACGCCCGGCGGCAGCAAGCGGAGCCGTCGACGACACCGCAGGGAGAGTCGATGGGTGATCGGACCGGCGACCGGACGATTCCGGAATCCTCGCAGACCGCAACGCGTTTCCTGCTCGGC (double strand) [PeryBVI]”: “no binding”; “GGCGGGCAGGAAATCAACACTTGTTGAATTACGGTCGCGCACGCGCTCCGCGATCGCGCGGACACTTACCGCTTCGGGCGGAAATGCATTGCAAGCAAAGAAGATTGGGCCGTTCGGCGGCATCCGGGCCGAGTGGTCAAGCGCACAGAGAACTGAGTTGCCCGCGCCCGTCCGTGCGATGCATGCTTGCGTCCAGCAACTAGTTGGTTGCTGCAATCAAATCGGTTGCGCTCGCCGGGGG (double strand) [Probe 1]”: “binds”.
Take “GGTGGCTTCTGGCGTGCTCATAACGCGTTCAGCGTATCCAGTCGGCTTCCGCCCTTGACCGGCGAGTCCCGGCAGGGCACCCTGAAGTTATTCAACATGCGTTGAAAACTTGGAGGATCGCGATGGAGCGAACGACGTGTTGC (double strand) [P6148-6149]”: the binding result in data set [2] and in data set [1] was “binds” in each case.
For the sequence “TCACCACCTGAAACCGCCACCGTTTTCCCGGAATCCGGCCACCGGAACCGGACCGGCCGAAATGGACATTCCGCCACGGTGCCGCGGGCGCCACCCGCACGCACGTTGAATTCAACACATGTTCAACAGCGTCGGAGGCGGGGATAATCGAACCCTGAGCGCCCGCCGAGCGTTCGCCACGGCCGCCATCGTCCGCGTGAGGAACCCATGACCAAGCA (double strand) [P3599]”, the binding entry in data set [2] and in data set [1] was “binds” each time.
In the case of “TCGGCGCCTCCTCCTCGATGCCACCGCTCACACCGCCATCCTCGCTGTCGGCCGCTTCGGGGTGCAAAGCCGGGCTGCGCGCGGCACCCGCCCTGGCGGACGGCACAATTGGGGCATGGTGGGCGGCGACATCGGCAAGATCAGTC (double strand) [P5753-5754]”, the binding entry in data set [1] is recorded as “no binding”.
Turning to “TGCCCGAAAGGTAACCCCGCGGCGGGCAGGAAATCAACACTTGTTGAATTACGGTCGCGCACGCGCTCCGCGATCGCGCGGACACTTACCGCTTCGGGCGGAAATGCATTGCAAGCAAAGAAGATTGGGCCGTTCGGCGGCATCCGGGCCGAGTGGTCAAGCGCACAGAGAACTGAGTTGCCCGCGCCCGTCCGTGCGATGCATGCTTGCGTCCAGCAACTAGTTGGTTGCTGCAATCAAATCGGTTGCGCTCGCCGGGGG (double strand) [P0388-0389]”, the binding entry in data set [2] and in data set [1] was “binds” each time.

The values are drawn from paper PMC6346578.
